Test [1] has as its target low density lipoprotein receptor-related protein/a2-macroglobulin receptor (LRP) on rat hepatoma MH1 C1 cells (rat).
Test [2] has the same target. This is another data set of the same source.
In test [3] the target is human low density lipoprotein receptor-related protein (LRP) on human hepatoma HepG2 cells (human) (UniProt Q07954).
Test [4] concerns the target TFPI binding sites on rat hepatoma MH1 C1 cells (receptor not identified). As to the kind of experiment: binding of ^125 I-TFPI to MH1 C1 cell monolayers at 4° C. (saturation with Scatchard analysis, and competition by unlabelled TFPI).
For test [5], the target named is factor Xa.

For orientation: pKd means −log10 of the Kd, conventionally taken in molar units. A lower pKd goes with a large Kd.

pKd: −log10 of the molar value.

“receptor-associated protein (RAP), 39-kDa protein, full-length (1-319) (ligand)” displayed a degradation of pre-bound ^125 I-TFPI in a single cycle of endocytosis in MH1 C1 cells in test [1] of 80%. In test [2], the inhibition of ^125 I-TFPI degradation (trichloroacetic acid-soluble radioactivity) by MH1 C1 cells, 4 h at 37° C. was determined as 80%. This substance gave a degradation of pre-bound ^125 I-TFPI by HepG2 cells (single cycle endocytosis assay) in test [3] of 65%.
Turning to “recombinant human full-length tissue factor pathway inhibitor (TFPI) (from UniProt P10646) (ligand)”, in test [4], the negative logarithm of the Kd (pKd) is 7.52. In test [5], this substance gave a functional activity (stoichiometric inhibition of factor Xa) of 88%.

(Values after US5650391.)
